Laboratory results from patent US20050233963A1 (priority 2000, published 2005).

B1: N 1/2: N-terminal portion of UBP (a.a. 1-145) (protein)
chain: MDNKKRLAYAIIQFLHDQLRHGGLSSDAQESLEVAIQCLETAFGVTVEDSDLALPQTLPEIFEAAATGKEMPQDLRSPARTPPSEEDSAEAERLKTEGNEQMKVENFEAAVHFYGKAIELNPANAVYFCNRAAAYSKLGNYAGAV
modifications: left off: a dimerising Fc or GST
B2: C 1/2: C-terminal half of UBP (a.a. 145-313) (protein)
chain: VQDCERAICIDPAYSKAYGRMGLALSSLNKHVEAVAYYKKALELDPDNETYKSNLKIAELKLREAPSPTGGVGSFDIAGLLNNPGFMSMASNLMNNPQIQQLMSGMISGGNNPLGTPGTSPSQNDLASLIQAGQQFAQQMQQQNPELIEQLRSQIRSRTPSASNDDQQE
modifications: left off: a dimerising Fc or GST
B3: FTPR: UBP fragment containing TPR 2-4 with flanking charged residues (a.a. 81-209) (protein)
chain: TPPSEEDSAEAERLKTEGNEQMKVENFEAAVHFYGKAIELNPANAVYFCNRAAAYSKLGNYAGAVQDCERAICIDPAYSKAYGRMGLALSSLNKHVEAVAYYKKALELDPDNETYKSNLKIAELKLREA
B4: TPR 2-4 (protein)
chain: KTEGNEQMKVENFEAAVHFYGKAIELNPANAVYFCNRAAAYSKLGNYAGAVQDCERAICIDPAYSKAYGRMGLALSSLNKHVEAVAYYKKALELDPDNETY
modifications: left off: a dimerising Fc or GST

Experiments:
[1] = molecular target: T1, hsc70 (Bos taurus, UniProt P19120); experiment: UBP far-western analysis on hsc70; format: binding; conditions: GST fusions as probe
T1 construct: purchased Stressgen
T1 sequence (P19120 2-650 limits assumed): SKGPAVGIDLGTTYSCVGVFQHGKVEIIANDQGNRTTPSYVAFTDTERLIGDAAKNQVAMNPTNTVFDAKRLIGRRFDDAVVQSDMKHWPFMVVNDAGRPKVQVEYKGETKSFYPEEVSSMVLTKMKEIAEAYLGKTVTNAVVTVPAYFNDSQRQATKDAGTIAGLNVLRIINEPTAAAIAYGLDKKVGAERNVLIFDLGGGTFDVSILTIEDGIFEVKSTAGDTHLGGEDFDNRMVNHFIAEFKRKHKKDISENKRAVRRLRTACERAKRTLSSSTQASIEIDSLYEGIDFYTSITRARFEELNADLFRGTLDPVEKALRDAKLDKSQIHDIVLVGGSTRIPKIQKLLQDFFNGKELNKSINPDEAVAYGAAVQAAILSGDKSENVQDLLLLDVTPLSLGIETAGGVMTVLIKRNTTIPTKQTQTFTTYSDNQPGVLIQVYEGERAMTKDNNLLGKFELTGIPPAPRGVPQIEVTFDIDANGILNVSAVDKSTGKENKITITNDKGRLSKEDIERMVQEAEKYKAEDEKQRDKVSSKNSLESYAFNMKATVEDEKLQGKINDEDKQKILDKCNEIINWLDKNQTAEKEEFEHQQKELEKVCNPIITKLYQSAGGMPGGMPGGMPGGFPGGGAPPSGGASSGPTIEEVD
Text: FIG. 13A: Thirty μg of HeLa cell lysate was separated by SDS-PAGE in three identical lanes, blotted to nitrocellulose and probed with either, no probe (none), GST alone, or GST-UBP. The far-western blot was then developed with anti-GST antibody to reveal bands which interact with UBP. The arrow to the right indicates a 70 kD band detected by the GST-UBP fusion. The numbers to the left of each blot represent molecular weights in kilodaltons. […] FIG. 13C, Samples from the GST-UBP pull down assay were analyzed by western blot for the presence hsc70. At the bottom of the gel, the contents of each reaction are indicated by the plus symbols. The NaCl concentration of the washing buffer (100, 200, 300, and 500 mM) is indicated at the top of each lane. The arrow to the right of the blot indicates the position of the hsc70 band.
The term “hsc70” is used when referring to both hsp70 and its nearly identical constitutive counterpart, hsc70. […] The numbers to the left of the blots indicate the molecular weights in kilodaltons. The diagram below the blots indicates regions of UBP contained in each fusion construct. The column to the right summarizes the results, where a plus symbol indicates binding and a minus symbol indicates no binding.
Western blots were performed using standard techniques. Briefly, 30 μg HeLa cytoplasmic extract or 20 ng of hsc70, hsp70, or hsp90 were denatured in 1×SDS sample buffer. The samples were loaded on a 10% polyacrylamide gel. Separated protein was transferred to nitrocellulose membranes. The membranes were blocked in 5% dry milk protein in TBS (20 mM Tris [pH 7.4], 100 mM NaCl) for 45 min. The gels with proteins separated on them were transferred to nitrocellulose and blocked against 5% dry milk protein in TBS for 45 min. Primary antibody, either anti-hsp70 or hsp90 monoclonal antibodies, or anti-UBP rabbit polyclonal antibody was incubated with the blots at appropriate concentrations (1:1000 dilutions for each) in 5% milk protein in TBS for 2 hours at 4° C. with gentle rocking. The membranes were washed with TBS for 10 minutes. […]

[2] = tested on: HIV-1; experiment: HIV-1 particle release, p24 antigen capture ELISA in transfected HeLa cells; format: cell-based, human immunodeficiency virus type 1; conditions: co-expression in HeLa cells
Description: FIG. 20B: Alternatively, HeLa cells were co-transfected with 1 μg of Vpu^+ or Vpu^− proviral genomes and 10 μg pHIV-TARluc (Luc) or pHIV-FTPR. Thirty-six hours after transfection the amount of p24 Gag in the media and cell pellets was quantified using an antigen capture ELISA. The relative particle release is given by the ratio of extracellular to intracellular p24. The data were normalized to the control (Luc). The error bars represent the error of the mean for three independent experiments.
Triplicate plates of 5×10^5 HeLa cells were transfected with 1 μg of Vpu^+ (MSMBA) or Vpu^− (DF101) proviral genomes and 10 μg of pHIV-UBP, pHIV-UBP-N, pHIV-FTPR or pHIV-TARluc. Thirty-six hrs after transfection, media were harvested and centrifuged at low-speed to remove cellular debris. The cells were washed with 1×PBS, resuspended in 1 ml of PBS, then pelleted at 5000×g in microfuge tubes. The cell pellets and media were treated with lysis buffer and applied to an HIV-1 p24 antigen assay kit following the instructions of the manufacturer (Coulter, Westbrook, Maine). Samples were processed along with positive controls to give quantitative levels of p24 Gag. Data were plotted as a function of the relative p24 units.

Molecule | interaction with hsc70 [1] | efficiency of virus particle exit (extracellular to intracellular p24 Gag) ([2]; Vpu present) | efficiency of virus particle exit (extracellular to intracellular p24 Gag) ([2]; absence of Vpu)
B1 | did not detectably interact | slight increase | did not significantly increase
B2 | did not detectably interact |  | 
B3 |  | slight increase | did not significantly increase
B4 | capable of stable interaction |  | 
